Results on seven molecules are retold here after US20150087812A1 (Janssen / Centocor, published 2015).

Where only a bound is given, the exact number is not on record here.

Assay [1] deals with T1, recombinant human ATX beta isoform with N-terminal purification tag (human, UniProt Q13822 49-863). As to the kind of experiment: Fab-His ELISA. On the procedure:
(§1) Fabs were captured on black MaxiSorp plates (Nunc, Cat. No. 437111) coated with 1 μg/ml sheep anti-human Fd (CH1) antibody (The Binding Site, Cat. No. PC075). Plates were washed and biotinylated human ATX was added to the captured Fabs at 5 nM. Incubation was carried out for 1 hour at room temperature with gentle shaking. Plates were washed, SA-HRP (Invitrogen, Cat. No. 43-4323) was added and chemiluminescent detection carried out.
(§2) Clones with binding above background were sequenced and unique clones identified. […] These clones were identified with binding signal to human ATX at least 6-fold above the background. Table 3 lists the identifier for VH and VL (Peptide ID) and the combination of both (Fab ID) sorted by the Fab ELISA binding data.
Background: In an ELISA, binding on a coated surface is turned into a signal by an enzyme label.

Assay [2] has as its target T1, recombinant human ATX beta isoform with …. As to the kind of experiment: ELISA, Fab-His captured by anti-Fd, 5 nM biotinylated human ATX beta. The protocol:
as §1, §2

B1: Fab F117 (VH H110, VL L103) (Fab, V domains shown)
VH: QVQLVQSGAEVKKPGSSVKVSCKASGGTFSSYAISWVRQAPGQGLEWMGGIIPIFGTANYAQKFQGRVTITADESTSTAYMELSSLRSEDTAVYYCARADANQLSGYLDYWGQGTLVTVSS
VL: DIQMTQSPSSLSASVGDRVTITCRASQSIGRSLNWYQQKPGKAPKLLIYAASSLQSGVPSRFSGSGSGTDFTLTISSLQPEDFATYYCQQPFDYPFTFGQGTKVEIK
notes: Soluble Fab-His
As to B1, in assay [1], the fold above background is at least 6 fold. The “Fab Binding” value in assay [2] is 1.8e+06 relative chemiluminescence units.

B2: Fab F67 (VH H60, VL L61) (Fab, V domains shown)
VH: QVQLVQSGAEVKKPGSSVKVSCKASGGTFSSYAISWVRQAPGQGLEWMGGIIPIFGTANYAQKFQGRVTITADESTSTAYMELSSLRSEDTAVYYCARIARYARGYMHTFDYWGQGTLVTVSS
VL: DIQMTQSPSSLSASVGDRVTITCRASQSISSYLNWYQQKPGKAPKLLIYAASSLQSGVPSRFSGSGSGTDFTLTISSLQPEDFATYYCQQHLSIPITFGQGTKVEIK
notes: Soluble Fab-His; converted to mAb B10
For the molecule B2, the fold above background in assay [1] was at least 6 fold. In assay [2], the “Fab Binding” value was 8.8e+06 relative chemiluminescence units.

B3: Fab F90 (VH H83, VL L83) (Fab, V domains shown)
VH: QVQLVQSGAEVKKPGSSVKVSCKASGGTFSSYAISWVRQAPGQGLEWMGGIIPIFGTANYAQKFQGRVTITADESTSTAYMELSSLRSEDTAVYYCARGEANEVYPGLDYWGQGTLVTVSS
VL: EIVLTQSPGTLSLSPGERATLSCRASQSVSKSALAWYQQKPGQAPRLLIYNASSRATGIPDRFSGSGSGTDFTLTISRLEPEDFAVYYCQQSNKDPLTFGQGTKVEIK
notes: Soluble Fab-His
Regarding B3, the fold above background in assay [1] is at least 6 fold. Also, in assay [2], the “Fab Binding” value is 1.7e+06 relative chemiluminescence units.

B4: Fab F72 (VH H65, VL PH9L1) (Fab, V domains shown)
VH: QVQLVQSGAEVKKPGSSVKVSCKASGGTFSSYAISWVRQAPGQGLEWMGGIIPIFGTANYAQKFQGRVTITADESTSTAYMELSSLRSEDTAVYYCARGDANSIYPLFDYWGQGTLVTVSS
VL: not shown
notes: Soluble Fab-His
B4: the fold above background in assay [1] is at least 6 fold. The “Fab Binding” value in assay [2] was 1.6e+06 relative chemiluminescence units.

B5: Fab F85 (VH H58, VL L79) (Fab, V domains shown)
VH: QVQLVQSGAEVKKPGSSVKVSCKASGGTFSSYAISWVRQAPGQGLEWMGGIIPIFGTANYAQKFQGRVTITADESTSTAYMELSSLRSEDTAVYYCARDLYGIDIYYALDYWGQGTLVTVSS
VL: EIVLTQSPGTLSLSPGERATLSCRASQSVSSSYLAWYQQKPGQAPRLLIYGASSRATGIPDRFSGSGSGTDFTLTISRLEPEDFAVYYCQQSNTLPLTFGQGTKVEIK
notes: Soluble Fab-His
For the molecule B5, the fold above background in assay [1] was at least 6 fold. For the same molecule, the “Fab Binding” value in assay [2] was 1.7e+06 relative chemiluminescence units.

B6: Fab F89 (VH H70, VL L82) (Fab, V domains shown)
VH: QVQLVQSGAEVKKPGSSVKVSCKASGGTFSSYAISWVRQAPGQGLEWMGGISPYFGNANYAQKFQGRVTITADESTSTAYMELSSLRSEDTAVYYCARYGDFGGNVFTEFDYWGQGTLVTVSS
VL: EIVLTQSPGTLSLSPGERATLSCRASQSVNNSDLAWYQQKPGQAPRLLIYTASSRATGIPDRFSGSGSGTDFTLTISRLEPEDFAVYYCQQATTVPLTFGQGTKVEIK
notes: Soluble Fab-His; converted to mAb B9
On to B6, for which the fold above background in assay [1] was at least 6 fold. In addition, the “Fab Binding” value in assay [2] is 5.7e+06 relative chemiluminescence units.

B7: Fab F40 (VH H32, VL L42) (Fab, V domains shown)
VH: EVQLVQSGGGLVQPGGSLRLSCAASGFTFSSYAMSWVRQAPGKGLEWVSVINSDGSSIYYADSVKGRFTISRDNSKNTLYLQMNSLRAEDTAVYYCAKLEAIDYAWGFDYWGQGTLVTVSS
VL: EIVLTQSPATLSLSPGERATLSCRASQSVADSLAWYQQKPGQAPRLLIYNASNRATGIPARFSGSGSGTDFTLTISSLEPEDFAVYYCQQSFHWPLTFGQGTKVEIK
notes: Soluble Fab-His; converted to mAb B16; the Fab's H32 may differ in FR1
As for B7, in assay [1], the fold above background was at least 6 fold. Besides, the “Fab Binding” value in assay [2] was 8.1e+06 relative chemiluminescence units.
